B1: MIF: recombinant human macrophage migration inhibitory factor, tested as nuclease on hgDNA (protein, UniProt P14174 2-115, looked up)
Macrophage migration …: PMFIVNTNVPRASVPDGFLSELTQQLAQATGKPPQYIAVHVVPDQLMAFGGSSEPCALCSLHSIGKIGGAQNRSYSKLLCGLLAERLRISPDRVYINYYDMNAANVGWNNSTFA
B2: MIF2: recombinant human MIF2 (D-dopachrome tautomerase), tested as nuclease on hgDNA (protein, UniProt P30046 2-118, looked up)
D-dopachrome decarboxylase: PFLELDTNLPANRVPAGLEKRLCAAAASILGKPADRVNVTVRPGLAMALSGSTEPCAQLSISSIGVVGTAEDNRSHSAHFFEFLTKELALGQDRILIRFFPLESWQIGKIGTVMTFL

Test system: human genomic DNA
Assay: Nuclease assay of MIF and MIF2 on human genomic DNA (agarose gel)
Assay type: biochemical
Conditions: for concentration giving complete hgDNA cleavage: within 2 h, 37°C, Mg2+
Description: 7. Nuclease activity of MIF and MIF2.
Human genomic DNA was obtained from RPE-1 cells by DNA extraction following the protocol described in literature.[10] The nuclease assays were conducted by following the procedure described previously.[8] hgDNA (200 ng/reaction) was incubated with MIF or MIF2 in final concentration of 0.62 -20 µM as indicated in 10Mm Tris-HCl buffer (pH 7.0) containing 10mM MgCl2 (B and C) or specific buffer as indicated at 37°C for two hours. The reaction was terminated with loading buffer containing 10mM EDTA and incubation on ice. The human genomic DNA samples were immediately separated on a 1% agarose gel containing SYBR Safe (ThermoFisher) in 0.5 X TBE buffer with initial switch time of 1.5 s and a final switch time of 3.5 s for 12 hours at 6 V/cm. DNA was further detected by chemiluminescence.
Figure S7. hgDNA cleavage activity of MIF and MIF2. (A) The MIF2 nuclease activity is Mg 2+- […]
BITC is a covalent inhibitor that can form covalent bond with the N-terminal proline.[11] (C) […]
(1 picture or pasted object on this page, not shown here)

Row | Molecule | concentration giving complete hgDNA cleavage | nuclease activity relative to MIF (lower activity than MIF)
1 | B1 | 1.25 µM | –
2 | B2 | above 10 μM | 10 fold

From paper PMC9299485, “4‐Iodopyrimidine Labeling Reveals Nuclear Translocation and Nuclease Activity for Both MIF and MIF2” (Chemistry (Weinheim an Der Bergstrasse, Germany), 2021)
